Experimental data as given in IntAct's records for PubMed 17167421.

The substances below were run against syt2_rat Syt2 (UniProt P29101).
With “Botulinum neurotoxin type B (Clostridium botulinum) (from UniProt P10844) F1204A” the “effect of a mutation on the interaction” value was “disrupting interaction strength”.
For “Botulinum neurotoxin type B (Clostridium botulinum) (from UniProt P10844) V1118D”, the “effect of a mutation on the interaction” value was “decreasing interaction strength”.
In the case of “Botulinum neurotoxin type B (Clostridium botulinum) (from UniProt P10844) K1192E”, the “effect of a mutation on the interaction” value is reported as “decreasing interaction strength”.
With “Botulinum neurotoxin type B (Clostridium botulinum) (from UniProt P10844) F1194A” the “effect of a mutation on the interaction” value was “disrupting interaction strength”.
